The values that follow come from publication PMC3999930, “Characterization of a SAM-dependent fluorinase from a latent biosynthetic pathway for fluoroacetate and 4-fluorothreonine formation in Nocardia brasiliensis” (F1000Research, 2014).

This series deals with the molecule itself. The series can be described thus: SEC; Superdex 200 GL, 50 mM phosphate buffer pH 7.8, 1 ml/min; native mass estimated from a calibration curve of standard proteins (29-669 kDa).

By stoichiometry N is commonly meant a count of units in the complex or per binding partner.

B1: NobA, SAM-dependent fluorinase (5'-fluoro-5'-deoxyadenosine synthase) from Nocardia brasiliensis ATCC 700358 (enzyme, UniProt W8JNL4 1-300, looked up)
chain: MTTTNGRRPIIAFMSDLGITDDSVAQCKGLMLSVCPDVTIVDICHTMQPWDVEEGARYIVDLPRLFPEGTVFATTTYPATGTTARSVALRIAHASKGGARGQWAGSGAGFERKEGSYIYIAPNNGLLTTVIKEHGYLEAYEVSSPEVIPEQPEPTFYSREMVALPSAHLAAGFPLEKVGRRLADDEIVRFERKDPELVADHDLVGYVTNIDHPFGNVWTNIHRTDLEKLGVGYGTKLRITLDGVLPFELPLSPTFADAGEIGAAVAYLSSRGYLALARNAASLAYPYNLKAGISVQVKVG
notes: NobA, fluorinase of Nocardia brasiliensis ATCC 700358 (HUJEG-1); NdeI-HindIII fragment in pET28a; no removal of the His tag is described; also called 5'-FDA synthase; source: E. coli BL21 (DE3), purified (Ni-NTA, dialysis)
In the case of B1, the “stoichiometry N” value was 6.
